{"source": "patent EP4796130A1", "about": "“ANTI-TISSUE FACTOR ANTIBODY-DRUG CONJUGATE COMPRISING CAMPTOTHECIN DERIVATIVE” (Celltrion, Inc., priority 2023, dated 2025)", "tested_on": "HPAFII (human pancreatic cancer xenograft model)", "assay": "In vivo antitumor efficacy, HPAFII xenograft model", "design": "species or system CB17 SCID mice", "conditions": "3 mg/kg i.v. QW × 3"}
{"molecule": "Isotype-MMAE: ADC in which anti-influenza A antibody (Navivumab, P23) is conjugated with MMAE (MC-vc-PAB-MMAE); DAR 4 (conjugate, chains of the INN, looked up, mc-vc-PAB-MMAE payload, DAR 4) VH: QVQLVQSGAEVKKPGASVKVSCKTSGYSFSTYGVSWVRQAPGQGPEWVGWISAYTGITDYAQKFQGRVTLTTDATTATAFLDLRSLRPDDTATYFCARDKVQGRVEVGSGGRHDYWGQGTLVIVSS VL: EVVLTQSPGTLALPPGERATLSCRASHRVGSTYIAWYQQKSGQAPRRLIYGASNRATDIPDRFSGSGSGTDFTLTIRRLEPEDSAVYYCQQFSVSPWTFGQGTRVEIK", "values": [{"measurement": "Tumor Volume", "setting": "day 0, mean ± SEM", "result": "235 ± 17", "unit": "mm^3"}, {"measurement": "Tumor Volume", "setting": "day 4, mean ± SEM", "result": "357 ± 38", "unit": "mm^3"}, {"measurement": "Tumor Volume", "setting": "day 7, mean ± SEM", "result": "424 ± 46", "unit": "mm^3"}, {"measurement": "Tumor Volume", "setting": "day 11, mean ± SEM", "result": "603 ± 79", "unit": "mm^3"}, {"measurement": "Tumor Volume", "setting": "day 14, mean ± SEM", "result": "799 ± 98", "unit": "mm^3"}, {"measurement": "Tumor Volume", "setting": "day 28, mean ± SEM", "result": "2,142 ± 164 mm^3"}, {"measurement": "T/Cweight", "setting": "day 28 vs control group G1", "result": 90.45, "unit": "%"}, {"measurement": "TGI", "setting": "day 28 vs control group G1", "result": 10.01, "unit": "%"}, {"measurement": "Tumor Weights on Day 28", "setting": "mean ± SEM", "result": "1.933 ± 0.177", "unit": "g"}, {"measurement": "T/C", "setting": "tumor volume on day 28 vs control group G1", "result": 90.99, "unit": "%"}]}
